From patent US20230097573A1 (LG CHEM, published 2023)

Key:
hFcRn with a His-tag [1] = target: T1, hFcRn with a His-tag (human, UniProt P55899 24-297; P61769 21-119); assay: BLI (Octet), His-hFcRn on Ni-NTA biosensor, Affimer 40 nM, pH 7.4
T1 construct: It may be the same product as m1; also called huFcRn (His tagged molecule, BPS); not shown: His-tag
Protocol: (§1) A BLI (Bio-Layer Interferometry)-based binding assay was performed for AFFIMER® screening in which the affinity to FcRn varies depending on the pH. hFcRn with a His-tag was fixed to a Ni-NTA biosensor. Thereafter, in the hFcRn and the AFFIMER® candidate group, Ni²⁺ not bound to the hFcRn was blocked using His-SQT-gly with a high concentration, in which reactivity is absent. Then, the AFFIMER® candidate group diluted to the same concentration was reacted with the hFcRn. All affimers were analyzed at pH 6.0 and pH 7.4, and KD was determined with a 1:1 binding model.

Hu FcRn (BPS Bioscience) [2] = target: T2, Hu FcRn (BPS Bioscience) (human, UniProt P55899 24-297; P61769 21-119); assay: optimized ELISA on FcRn, pH 6
T2 construct: Bought recombinant protein coated on ELISA plates; also called human FcRn; human neonatal Fc receptor

hFcRn with a His-tag [3] = target: T1, hFcRn with a His-tag; assay: BLI (Octet), His-hFcRn on Ni-NTA biosensor, Affimer 40 nM, pH 6.0, 1:1 model
Protocol: as §1

hFcRn with a His-tag [4] = target: T1, hFcRn with a His-tag; assay: BLI (Octet), His-hFcRn on Ni-NTA biosensor, Affimer 40 nM, pH 6.0
Protocol: as §1

hFcRn with a His-tag [5] = target: T1, hFcRn with a His-tag; assay: BLI (Octet), His-hFcRn on Ni-NTA biosensor, Affimer 40 nM, pH 7.4, 1:1 model
Protocol: as §1

Hu FcRn (BPS Bioscience) [6] = target: T2, Hu FcRn (BPS Bioscience); assay: optimized ELISA on FcRn, pH 7.4
hFcRn with a His-tag [7] = target: T1, hFcRn with a His-tag; assay: BLI (Octet); ratio of KD at pH 7.4 to KD at pH 6.0
Protocol: as §1

Hu FcRn (BPS Bioscience) [8] = target: T2, Hu FcRn (BPS Bioscience); assay: ELISA, huFcRn coated, purified Affimer, pH 6
Protocol: The binding of AFFIMER® to hu-FcRn was evaluated by enzyme linked immunosorbent assay (ELISA) in 384 well plate format. Hu FcRn (BPS Bioscience) was coated at 5 μg/ml on the plate in 40 mM MES, pH 6. Plates were washed 3 times with 100 ul of washing buffer (PBS, Tween 20 0.05%, pH 6) with a plate washer and saturated with Casein 5% (Sigma) in MES pH 6 for 60 minutes at room temperature (25±1° C.). Plates were washed as described previously. AFFIMER® and negative controls (mAb anti hFcRn (clone ADM31), negative controls) were then diluted in duplicate, and loaded on the plate for 90 minutes at room temperature (25±1° C.). Plates were washed 3 times as described previously. Biotinylated polyclonal antibody anti Cystatin (R&D Systems) was then diluted in dilution buffer (1% casein, 0.05% Tween 20, and 8 mM MES, pH 6) and incubated 60 minutes at room temperature (25±1° C.). Plates were washed 3 times as described previously and Streptavidin HRP (N200, Thermo-Fisher) was incubated for 30 minutes at room temperature (25±1° C.). Plates were washed and the substrate (TMB, Pierce Thermo-Scientific) was added in the plate for 8±1 minute. The reaction was stopped using an acidic solution and plates were read at 450-630 nm. The EC₅₀ was then calculated using the interpolated non-linear four-parameters standard curve (FIGS. 5A-5B and Table 5A).

Hu FcRn (BPS Bioscience) [9] = target: T2, Hu FcRn (BPS Bioscience); assay: ELISA, huFcRn coated, pH 6
Protocol: The binding of AFFIMER® to Hu-FcRn was evaluated by enzyme linked immunosorbent assay (ELISA) in 384 well plate format. Hu FcRn (BPS Bioscience) was coated at 5 μg/ml on the plate in 40 mM MES, pH 6. Plates were washed 3 times with 100 μl of washing buffer (PBS, Tween 20 0.05%, pH 6) with a plate washer and saturated with Casein 5% (Sigma) in MES pH6 for 60 minutes at room temperature (25±1° C.). Plates were washed as described previously. AFFIMER® and negative controls (mAb anti hFcRn (clone ADM31), negative controls) were then diluted in duplicate, and loaded on the plate for 90 minutes at room temperature (25±1° C.). Plates were washed 3 times as described previously. Biotinylated polyclonal antibody anti Cystatin (R&D Systems) was then diluted in dilution Buffer (1% casein, 0.05% Tween 20, and 8 mM MES. It is in pH6) and incubated 60 minutes at room temperature (25±1° C.). Plates were washed 3 times as described previously and Streptavidin HRP (N200, thermo-Fisher) was incubated for 30 minutes at room temperature (25±1° C.). Plates were washed and the substrate (TMB, Pierce Thermo-Scientific) was added in the plate for 8±1 minute. The reaction was stopped using an acidic solution and plates were read at 450-630 nm. The EC50 was then calculated using the interpolated non-linear four-parameters standard curve (Table 4).

Row | Binder | Response (hFcRn with a His-tag [1]) | EC50 (Hu FcRn (BPS Bioscience) [2]) [nM] | Kd (hFcRn with a His-tag [3]) [nM] | Response (hFcRn with a His-tag [4]) | Kd (hFcRn with a His-tag [5]) [nM] | EC50 (Hu FcRn (BPS Bioscience) [6]) [nM] | pH 7.4/pH 6.0 (KD ratio) (hFcRn with a His-tag [7]) | EC50 (Hu FcRn (BPS Bioscience) [8]) [nM] | EC50 (Hu FcRn (BPS Bioscience) [9]) [nM]
1 | FcRn-125 (designed binder, AFFIMER (stefin A variant)) MIPRGLSEAKPATPEIQEIVDKVKPQLEEKTNETYGKLEAVQYKTQVLADHRPRHPKHSTNYYIKVRAGDNKYMHLKVFNGPAHKHHLGFKADRVLTGYQVDKNKDDELTGFHHHHHH | – | – | – | – | – | – | – | 187 | –
2 | FcRn-120 (designed binder, AFFIMER (stefin A variant)) MIPRGLSEAKPATPEIQEIVDKVKPQLEEKTNETYGKLEAVQYKTQVLAKHKYHHTGHSTNYYIKVRAGDNKYMHLKVFNGPGQIHKVRSTADRVLTGYQVDKNKDDELTGFHHHHHH | – | – | – | – | – | – | – | 50.5 | –
3 | FcRn-88 (designed binder, AFFIMER (stefin A variant)) MIPRGLSEAKPATPEIQEIVDKVKPQLEEKTNETYGKLEAVQYKTQVLAHHTKHHSRWSTNYYIKVRAGDNKYMHLKVFNGPVNHISHAPIADRVLTGYQVDKNKDDELTGFHHHHHH | 0.71 | 967 | 18.7 | 1.12 | 82.8 | 23300 | 4.4 | – | –
4 | FcRn-18 (designed binder, AFFIMER (stefin A variant)) MIPRGLSEAKPATPEIQEIVDKVKPQLEEKTNETYGKLEAVQYKTQVLAETPHERHKTSTNYYIKVRAGDNKYMHLKVFNGPKRWLKHHAHADRVLTGYQVDKNKDDELTGFHHHHHH | 0.794 | 327 | 16 | 1.2 | 65 | 19700 | – | – | –

Other lines, results leading:

Row | Response (hFcRn with a His-tag [1]) | EC50 (Hu FcRn (BPS Bioscience) [2]) [nM] | Kd (hFcRn with a His-tag [3]) [nM] | Response (hFcRn with a His-tag [4]) | Kd (hFcRn with a His-tag [5]) [nM] | EC50 (Hu FcRn (BPS Bioscience) [6]) [nM] | pH 7.4/pH 6.0 (KD ratio) (hFcRn with a His-tag [7]) | EC50 (Hu FcRn (BPS Bioscience) [8]) [nM] | EC50 (Hu FcRn (BPS Bioscience) [9]) [nM] | Binder
5 | 0.595 | 4480 | 10.5 | 1.02 | 57.9 | 78900 | 5.5 | – | – | FcRn-176 (designed binder, AFFIMER (stefin A variant)) MIPRGLSEAKPATPEIQEIVDKVKPQLEEKTNETYGKLEAVQYKTQVLAGRHHESHKSSTNYYIKVRAGDNKYMHLKVFNGPFQHKLHKHHADRVLTGYQVDKNKDDELTGFHHHHHH
6 | – | – | – | – | – | – | – | – | 74.1 | FcRn-15 (designed binder, also called LGC01-15) MIPRGLSEAKPATPEIQEIVDKVKPQLEEKTNETYGKLEAVQYKTQVLAHNHRHYSKGSTNYYIKVRAGDNKYMHLKVFNGPAFNDGAVFIADRVLTGYQVDKNKDDELTGFHHHHHH
7 | 0.803 | 1500 | 8.76 | 1.44 | 59.3 | 79900 | 6.8 | – | – | FcRn-48 (designed binder, AFFIMER (stefin A variant)) MIPRGLSEAKPATPEIQEIVDKVKPQLEEKTNETYGKLEAVQYKTQVLAKPKYHHHDISTNYYIKVRAGDNKYMHLKVFNGPGHHAKPHRWADRVLTGYQVDKNKDDELTGFHHHHHH
8 | 0.631 | 1020 | 20.5 | 1.07 | 83.3 | 48600 | – | – | – | FcRn-16 (designed binder, AFFIMER (stefin A variant)) MIPRGLSEAKPATPEIQEIVDKVKPQLEEKTNETYGKLEAVQYKTQVLAKHHHHKHQHSTNYYIKVRAGDNKYMHLKVFNGPVFLHNESHQADRVLTGYQVDKNKDDELTGFHHHHHH
9 | 0.602 | 570 | 9.27 | 1.16 | 61.2 | 15700 | 6.6 | – | – | FcRn-109 (designed binder, AFFIMER (stefin A variant)) MIPRGLSEAKPATPEIQEIVDKVKPQLEEKTNETYGKLEAVQYKTQVLARPHNRDSHRSTNYYIKVRAGDNKYMHLKVFNGPDRKHRKHWHADRVLTGYQVDKNKDDELTGFHHHHHH
10 | 0.582 | 262 | 28.4 | 0.836 | 123 | 15700 | 4.3 | – | – | FcRn-12 (designed binder, AFFIMER (stefin A variant)) MIPRGLSEAKPATPEIQEIVDKVKPQLEEKTNETYGKLEAVQYKTQVLAKVKTHDHQRSTNYYIKVRAGDNKYMHLKVFNGPIHQHHSQDWADRVLTGYQVDKNKDDELTGFHHHHHH
